# T1: I53_dn5B trimer
# T1 chain: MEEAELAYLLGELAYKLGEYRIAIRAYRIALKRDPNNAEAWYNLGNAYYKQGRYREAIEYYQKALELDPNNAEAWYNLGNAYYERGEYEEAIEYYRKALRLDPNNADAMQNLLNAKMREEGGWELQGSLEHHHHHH
# What was measured:
# I53-50B.4PT1 pentamer [1] = experiment: nanoparticle assembly grade, Table 3
# I53_dn5B trimer [2] = molecular target: T1, I53_dn5B trimer; experiment: in vitro nanoparticle assembly, SEC
# I53_dn5B trimer [3] = molecular target: T1, I53_dn5B trimer; experiment: nanoparticle assembly grade, Table 3
# I53-50B.4PT1 pentamer [4] = experiment: in vitro nanoparticle assembly (Table 3; '-' means no nanoparticle assembly)
Binder,binding result (I53-50B.4PT1 pentamer [1]),binding result (I53_dn5B trimer [2]),also measured
"SEQ ID NO 70 (I53-50A_4gly) (designed binder, N-linked glycans at sequons 69-FSNET-73; 81-NAT-83; 96-NFT-98; 102-NVT-104) EELFKKHKIVAVLRANSVEEAIEKAVAVFAGGVHLIEITFTVPDADTVIKALSVLKEKGAIIGAGTVFSNETCRKAVESNATFIVSPHLDEEISNFTKEKNVTYMPGVMTPTELVKAMKLGHTILKLFPGEVVGPQFVKAMKGPFPNVKFVPTGGVNLDNVCEWFKAGVLAVGVGSALVKGTPDEVREKAKAFVEKIRGC",binds,–,–
"I53-50A_4gly trimer (designed binder, N-linked glycans at sequons 45-NAT-47; 73-YANET-77; 96-NFT-98; 146-FHNAT-150) EELFKKHKIVAVLRANSVEEAIEKAVAVFAGGVHLIEITFTVPNATTVIKALSVLKEKGAIIGAGTVTSVEYANETVESGAEFIVSPHLDEEISNFTKEKGVFYMPGVMTPTELVKAMKLGHTILKLFPGEVVGPQFVKAMKGPFHNATFVPTGGVNLDNVCEWFKAGVLAVGVGSALVKGTPDEVREKAKAFVEKIRGCLEEQKLISEEDLHHHHHH",binds,–,–
I53_dn5A_D120C pentamer coupled to 1 kDa PEG (designed binder) MGKYDGSKLRIGILHARGNAEIILALVLGALKRLQEFGVKRENIIIETVPGSFELPYGSKLFVEKQKRLGKPLDAIIPIGVLIRGSTPHFDYIADSTTHQLMKLNFELGIPVIFGVITADTCEQAEARAGLIEGKMHNHGEDWGAAAVEMATKFNGGWELQLEGSHHHHHH,–,binds,–
I53_dn5A_D120C pentamer coupled to 2 kDa PEG (designed binder) MGKYDGSKLRIGILHARGNAEIILALVLGALKRLQEFGVKRENIIIETVPGSFELPYGSKLFVEKQKRLGKPLDAIIPIGVLIRGSTPHFDYIADSTTHQLMKLNFELGIPVIFGVITADTCEQAEARAGLIEGKMHNHGEDWGAAAVEMATKFNGGWELQLEGSHHHHHH,–,binds,–
I53_dn5A_S84C_D120C pentamer coupled to 1 kDa PEG (designed binder) MGKYDGSKLRIGILHARGNAEIILALVLGALKRLQEFGVKRENIIIETVPGSFELPYGSKLFVEKQKRLGKPLDAIIPIGVLIRGCTPHFDYIADSTTHQLMKLNFELGIPVIFGVITADTCEQAEARAGLIEGKMHNHGEDWGAAAVEMATKFNGGWELQLEGSHHHHHH,–,binds,–
"I53_dn5A_S84C_D120C pentamer coupled to 5 kDa PEG (designed binder, 5 kDa PEG-maleimide on Cys84 and Cys120) MGKYDGSKLRIGILHARGNAEIILALVLGALKRLQEFGVKRENIIIETVPGSFELPYGSKLFVEKQKRLGKPLDAIIPIGVLIRGCTPHFDYIADSTTHQLMKLNFELGIPVIFGVITADTCEQAEARAGLIEGKMHNHGEDWGAAAVEMATKFNGGWELQLEGSHHHHHH",–,binds,–
I53_dn5A_2C2kPEG pentamer (designed binder) MGKYDGSKLRIGILHARGNAEIILALVLGALKRLQEFGVKRENIIIETVPGSFELPYGSKLFVEKQKRLGKPLDAIIPIGVLIRGCTPHFDYIADSTTHQLMKLNFELGIPVIFGVITADTCEQAEARAGLIEGKMHNHGEDWGAAAVEMATKFNGGWELQLEGSHHHHHH,–,binds,–
I53_dn5Acp7 PAS pentamer (designed binder) MGSHHHHHHGSDEQAEERAGTKAGNHGEDWGAAAVEMATKFNGSGGSGKYDGSKLRIGILHARGNAEIILELVLGALKRLQEFGVKRENIIIETVPGSFELPYGSKLFVEKQKRLGKPLDAIIPIGVLIRGSTAHFDYIADSTTHQLMKLNFELGIPVIFGVLTTESGGSASPAAPAPASPAAPAPSAPAAASPAAPAPASPAAPAPSAPAAASPAAPAPASPAAPAPSAPAA,–,binds,–
"SEQ ID NO 49 (I53_dn5A_3gly) (designed binder, N-linked glycans at sequons 83-NET-85; 118-NDT-120; 130-NAT-132) KYDGSKLRIGILHARGNAEIILELVLGALKRLQEFGVKRENIIIETVPGSFELPYGSKLFVEKQKRLGKPLDAIIPIGVLIRNETAHFDYIADSTTHQLMKLNFELGIPVIFGVLTTNDTEQAEERAGTNATNHGEDWGAAAVEMATKFNLEEQKLISEEDLHHHHHH",–,–,binding result (I53_dn5B trimer [3]): binds
"SEQ ID NO 53 (I53_dn5A_2gly) (designed binder, N-linked glycans at sequons 84-NDT-86; 131-NGT-133) KYDGSKLRIGILHARGNAEIILELVLGALKRLQEFGVKRENIIIETVPGSFELPYGSKLFVEKQKRLGKPLDAIIPIGVLIRGNDTHFDYIADSTTHQLMKLNFELGIPVIFGVLTTESDEQAEERAGTKNGTHGEDWGAAAVEMATKFNLEEQKLISEEDLHHHHHH",–,–,binding result (I53_dn5B trimer [3]): binds
"SEQ ID NO 50 (I53_dn5A_3gly) (designed binder, N-linked glycans at sequons 84-NDT-86; 120-NET-122; 131-NGT-133) KYDGSKLRIGILHARGNAEIILELVLGALKRLQEFGVKRENIIIETVPGSFELPYGSKLFVEKQKRLGKPLDAIIPIGVLIRGNDTHFDYIADSTTHQLMKLNFELGIPVIFGVLTTESNETAEERAGTKNGTHGEDWGAAAVEMATKFNLEEQKLISEEDLHHHHHH",–,–,binding result (I53_dn5B trimer [3]): binds
"SEQ ID NO 52 (I53_dn5A_2gly) (designed binder, N-linked glycans at sequons 83-NDT-85; 130-NAT-132) KYDGSKLRIGILHARGNAEIILELVLGALKRLQEFGVKRENIIIETVPGSFELPYGSKLFVEKQKRLGKPLDAIIPIGVLIRNDTAHFDYIADSTTHQLMKLNFELGIPVIFGVLTTESDEQAEERAGTNATNHGEDWGAAAVEMATKFNLEEQKLISEEDLHHHHHH",–,–,binding result (I53_dn5B trimer [3]): binds
"SEQ ID NO 51 (I53_dn5A_3gly) (designed binder, N-linked glycans at sequons 84-NDT-86; 118-NDT-120; 130-NAT-132) KYDGSKLRIGILHARGNAEIILELVLGALKRLQEFGVKRENIIIETVPGSFELPYGSKLFVEKQKRLGKPLDAIIPIGVLIRGNDTHFDYIADSTTHQLMKLNFELGIPVIFGVLTTNDTEQAEERAGTNATNHGEDWGAAAVEMATKFNLEEQKLISEEDLHHHHHH",–,–,binding result (I53_dn5B trimer [3]): binds
"SEQ ID NO 55 (I53_dn5A_2gly) (designed binder, N-linked glycans at sequons 120-NET-122; 130-NAT-132) KYDGSKLRIGILHARGNAEIILELVLGALKRLQEFGVKRENIIIETVPGSFELPYGSKLFVEKQKRLGKPLDAIIPIGVLIRGSTAHFDYIADSTTHQLMKLNFELGIPVIFGVLTTESNETAEERAGTNATNHGEDWGAAAVEMATKFNLEEQKLISEEDLHHHHHH",–,–,binding result (I53_dn5B trimer [3]): binds
I53_dn5Acp7 pentamer with ELP fused to the C terminus (designed binder) MGSHHHHHHGSDEQAEERAGTKAGNHGEDWGAAAVEMATKFNGSGGSGKYDGSKLRIGILHARGNAEIILELVLGALKRLQEFGVKRENIIIETVPGSFELPYGSKLFVEKQKRLGKPLDAIIPIGVLIRGSTAHFDYIADSTTHQLMKLNFELGIPVIFGVLTTES,–,binds,–
"SEQ ID NO 77 (I53-50A_7gly) (designed binder, N-linked glycans at sequons 45-NAT-47; 73-YANET-77; 81-NAT-83; 96-NFT-98; 102-NVT-104; 122-NVT-124; 146-FHNAT-150) EELFKKHKIVAVLRANSVEEAIEKAVAVFAGGVHLIEITFTVPNATTVIKALSVLKEKGAIIGAGTVTSVEYANETVESNATFIVSPHLDEEISNFTKEKNVTYMPGVMTPTELVKAMKLNVTILKLFPGEVVGPQFVKAMKGPFHNATFVPTGGVNLDNVCEWFKAGVLAVGVGSALVKGTPDEVREKAKAFVEKIRGC",–,–,binding result (I53-50B.4PT1 pentamer [4]): no binding
"SEQ ID NO 75 (I53-50A_6gly) (designed binder, N-linked glycans at sequons 45-NAT-47; 73-YANET-77; 96-NFT-98; 102-NVT-104; 122-NVT-124; 146-FHNAT-150) EELFKKHKIVAVLRANSVEEAIEKAVAVFAGGVHLIEITFTVPNATTVIKALSVLKEKGAIIGAGTVTSVEYANETVESGAEFIVSPHLDEEISNFTKEKNVTYMPGVMTPTELVKAMKLNVTILKLFPGEVVGPQFVKAMKGPFHNATFVPTGGVNLDNVCEWFKAGVLAVGVGSALVKGTPDEVREKAKAFVEKIRGC",–,–,binding result (I53-50B.4PT1 pentamer [4]): no binding
"SEQ ID NO 68 (I53-50A_4gly) (designed binder, N-linked glycans at sequons 45-NAT-47; 73-YANET-77; 81-NAT-83; 96-NFT-98) EELFKKHKIVAVLRANSVEEAIEKAVAVFAGGVHLIEITFTVPNATTVIKALSVLKEKGAIIGAGTVTSVEYANETVESNATFIVSPHLDEEISNFTKEKGVFYMPGVMTPTELVKAMKLGHTILKLFPGEVVGPQFVKAMKGPFPNVKFVPTGGVNLDNVCEWFKAGVLAVGVGSALVKGTPDEVREKAKAFVEKIRGC",binds,–,–
"SEQ ID NO 73 (I53-50A_6gly) (designed binder, N-linked glycans at sequons 45-NAT-47; 69-FSNET-73; 96-NFT-98; 102-NVT-104; 122-NVT-124; 146-FHNAT-150) EELFKKHKIVAVLRANSVEEAIEKAVAVFAGGVHLIEITFTVPNATTVIKALSVLKEKGAIIGAGTVFSNETCRKAVESGAEFIVSPHLDEEISNFTKEKNVTYMPGVMTPTELVKAMKLNVTILKLFPGEVVGPQFVKAMKGPFHNATFVPTGGVNLDNVCEWFKAGVLAVGVGSALVKGTPDEVREKAKAFVEKIRGC",binds,–,–
"SEQ ID NO 74 (I53-50A_6gly) (designed binder, N-linked glycans at sequons 45-NAT-47; 81-NAT-83; 96-NFT-98; 102-NVT-104; 122-NVT-124; 146-FHNAT-150) EELFKKHKIVAVLRANSVEEAIEKAVAVFAGGVHLIEITFTVPNATTVIKALSVLKEKGAIIGAGTVTSVEQCRKAVESNATFIVSPHLDEEISNFTKEKNVTYMPGVMTPTELVKAMKLNVTILKLFPGEVVGPQFVKAMKGPFHNATFVPTGGVNLDNVCEWFKAGVLAVGVGSALVKGTPDEVREKAKAFVEKIRGC",binds,–,–
"SEQ ID NO 69 (I53-50A_4gly) (designed binder, N-linked glycans at sequons 96-NFT-98; 102-NVT-104; 122-NVT-124; 146-FHNAT-150) EELFKKHKIVAVLRANSVEEAIEKAVAVFAGGVHLIEITFTVPDADTVIKALSVLKEKGAIIGAGTVTSVEQCRKAVESGAEFIVSPHLDEEISNFTKEKNVTYMPGVMTPTELVKAMKLNVTILKLFPGEVVGPQFVKAMKGPFHNATFVPTGGVNLDNVCEWFKAGVLAVGVGSALVKGTPDEVREKAKAFVEKIRGC",binds,–,–
"SEQ ID NO 71 (I53-50A_5gly) (designed binder, N-linked glycans at sequons 45-NAT-47; 73-YANET-77; 96-NFT-98; 122-NVT-124; 146-FHNAT-150) EELFKKHKIVAVLRANSVEEAIEKAVAVFAGGVHLIEITFTVPNATTVIKALSVLKEKGAIIGAGTVTSVEYANETVESGAEFIVSPHLDEEISNFTKEKGVFYMPGVMTPTELVKAMKLNVTILKLFPGEVVGPQFVKAMKGPFHNATFVPTGGVNLDNVCEWFKAGVLAVGVGSALVKGTPDEVREKAKAFVEKIRGC",binds,–,–
"SEQ ID NO 76 (I53-50A_7gly) (designed binder, N-linked glycans at sequons 45-NAT-47; 69-FSNET-73; 81-NAT-83; 96-NFT-98; 102-NVT-104; 122-NVT-124; 146-FHNAT-150) EELFKKHKIVAVLRANSVEEAIEKAVAVFAGGVHLIEITFTVPNATTVIKALSVLKEKGAIIGAGTVFSNETCRKAVESNATFIVSPHLDEEISNFTKEKNVTYMPGVMTPTELVKAMKLNVTILKLFPGEVVGPQFVKAMKGPFHNATFVPTGGVNLDNVCEWFKAGVLAVGVGSALVKGTPDEVREKAKAFVEKIRGC",–,–,binding result (I53-50B.4PT1 pentamer [4]): no binding
